From US20230183352A1 (published 2023)
Read-outs that look alike come from different tables or passages of the source.

What was measured:
[1] = target: T1, Claudin 18.2 (CLDN18.2), expressed on CHOS-CLDN 18.2 / HEK293-CLDN 18.2 / HCC827-CLDN 18.2 cells (human, UniProt P56856-2 1-261); assay: FACS, CHOS-CLDN18.2 cells, 20 µg/ml
T1 construct: whole, on cells; The species is not repeated for the CHOS-CLDN 18.2 cells; also called claudin-18A2
Description: (§1) The initial concentration of the antibody was 20 μg/ml, it was diluted at 1:4, and incubated at 4° C. for 60 min.

[2] = target: T1, Claudin 18.2 (CLDN18.2), expressed on …; assay: cell-based or functional assay
[3] = target: T1, Claudin 18.2 (CLDN18.2), expressed on …; assay: FACS, CHOS-CLDN18.2 cells, 5 µg/ml
Description: as §1

[4] = target: T1, Claudin 18.2 (CLDN18.2), expressed on …; assay: FACS, MFI on CHOS-CLDN18.2 over MFI on CHOS-CLDN18.1, 10 µg/ml
Description: The initial concentration of the antibody was 20 μg/mkit was diluted at 1:4, and incubated at 4° C. for 60 min.

[5] = target: T1, Claudin 18.2 (CLDN18.2), expressed on …; assay: FACS, CHOS-CLDN18.2 cells
Description: as §1

[6] = target: T1, Claudin 18.2 (CLDN18.2), expressed on …; assay: FACS, CHOS-CLDN18.2 cells, 5 µg/ml; remark: listed apart in the source
Description: as §1

[7] = target: T1, Claudin 18.2 (CLDN18.2), expressed on …; assay: FACS, CHOS-CLDN18.2 cells, 0.313 µg/ml
Description: as §1

[8] = target: T1, Claudin 18.2 (CLDN18.2), expressed on …; assay: FACS, CHOS-CLDN18.2 cells, 1.250 µg/ml
Description: as §1

[9] = target: T1, Claudin 18.2 (CLDN18.2), expressed on …; assay: FACS, CHOS-CLDN18.2 cells, 1.250 µg/ml; remark: listed apart in the source
Description: as §1

[10] = target: T1, Claudin 18.2 (CLDN18.2), expressed on …; assay: FACS, CHOS-CLDN18.2 cells, 0.313 µg/ml; remark: listed apart in the source
Description: as §1

[11] = target: T1, Claudin 18.2 (CLDN18.2), expressed on …; assay: FACS, CHOS-CLDN18.2 cells, 0.005 µg/ml
Description: as §1

[12] = target: T1, Claudin 18.2 (CLDN18.2), expressed on …; assay: FACS, CHOS-CLDN18.2 cells, 0.005 µg/ml; remark: listed apart in the source
Description: as §1

[13] = target: T1, Claudin 18.2 (CLDN18.2), expressed on …; assay: FACS, CHOS-CLDN18.2 cells, 0.020 µg/ml
Description: as §1

[14] = target: T1, Claudin 18.2 (CLDN18.2), expressed on …; assay: FACS, CHOS-CLDN18.2 cells, 0 µg/ml (background)
Description: as §1

[15] = target: T1, Claudin 18.2 (CLDN18.2), expressed on …; assay: FACS, CHOS-CLDN18.2 cells, 0.313 µg/ml; remark: listed apart in the source
Description: as §1

[16] = target: T1, Claudin 18.2 (CLDN18.2), expressed on …; assay: FACS, CHOS-CLDN18.2 cells; remark: listed apart in the source
Description: as §1

[17] = target: T1, Claudin 18.2 (CLDN18.2), expressed on …; assay: FACS, CHOS-CLDN18.2 cells, 0.078 µg/ml
Description: as §1

B1: QP024025 (antibody, human IgG1, V domains shown)
VH: QVQLQQPGAELVRPGASVKLSCKASGYTFTSYWINWVKQRPGQGLEWIGNIYPSDSYTNYNQKFKDKATLTVDKSSSTAYMQLSSPTSEDSAVYYCTRSWRGNSFDYWGQGTTLTVSS
VL: DIVMTQSPSSLTVTAGEKVTMSCKSSQSLLNSGNQKNYLTWYQQKPGQPPKLLIYWASTRESGVPDRFTGSGSGTDFTLTISSVQAEDLAVYYCQNDYSYPFTFGSGTKLEIK
notes: also called IMAB362; 175D10(IMAB362)
In the case of B1, the FACS reading [1] is reported as 72300, the “EC50 of killing, ADCC (PBMC, HEK293-CLDN18.2 cells)” value [2] is reported as 0.0156 µg/mL and the “Killing percentage, ADCC (PBMC, HEK293-CLDN18.2 cells), 0 µg/ml” value [2] is reported as -1.33%. The “Killing percentage, ADCC (PBMC, HEK293-CLDN18.2 cells), 0.0001024 µg/ml” value [2] was -2.74%, the “Killing percentage, ADCC (PBMC, HEK293-CLDN18.2 cells), 0.000512 µg/ml” value [2] was 1.7% and the “Killing percentage, ADCC (PBMC, HEK293-CLDN18.2 cells), 0.00256 µg/ml” value [2] was 1.49%. For the same binder, the “Killing percentage, ADCC (PBMC, HEK293-CLDN18.2 cells), 0.0128 µg/ml” value [2] was 11%, the “Killing percentage, ADCC (PBMC, HEK293-CLDN18.2 cells), 0.064 µg/ml” value [2] was 22% and the “Killing percentage, ADCC (PBMC, HEK293-CLDN18.2 cells), 0.32 µg/ml” value [2] was 28.2%. The “Killing percentage, ADCC (PBMC, HEK293-CLDN18.2 cells), 1.6 µg/ml” value [2] was 30%, the “Killing percentage, ADCC (PBMC, HEK293-CLDN18.2 cells), 8 µg/ml” value [2] was 26.2% and the “Killing percentage, ADCC (PBMC, HEK293-CLDN18.2 cells), 40 µg/ml” value [2] was 21.6%. For the same binder, the FACS reading [3] was 105000, the “CLDN18.2/CLDN18.1 (MFI ratio)” value [4] was 104 and the EC50 [5] was 0.27 µg/mL. It also gave a max [5] of 88600, an FACS reading [6] of 105000 and an FACS reading [7] of 51000. It also gave an FACS reading [8] of 63700, an FACS reading [9] of 63700 and an FACS reading [10] of 51000. For the same binder, the FACS reading [11] was 2830, the FACS reading [12] was 2830 and the FACS reading [13] was 6950. For the same binder, the FACS reading [14] was 732, the FACS reading [15] was 51000 and the EC50 [16] was 0.27 µg/mL. For the same binder, the max [16] was 88600 and the FACS reading [17] was 18200.
